Assay: soluble on expression in E. coli; label from the status in PepcDB or PDB records

**Q.** For “MASSSLIMGNNMHVKYLAGIVGAALLMAGCSSSNELSAAGQSVRIVDEQPGAECQLIGTATGKQSNWLSGQHGEEGGSMRGAANDLRNQAAAMGGNVIYGISSPSQGMLSSFVPTDSQIIGQVYKCPNLEHHHHHH”, which “soluble on expression in E. coli” value is on record?
**A.** not soluble

**Q.** For “MTGPEPVPAGPPPDPTPPRRAGSVWAHVGQHFTEEAFDIVVIGAGRMGAACAFYLRQLAPGRSLLLVEEGGLPNEEGATILAPGVWTAQDIPAGQEAQAEWTREQLLGALGSGKTLEVEDRPLLHLLPAGEGSGLTPTLDALADFPEALALLDPARLPVARVDPRALTYRPGSLALLAAQQAIGQGAGLLLNTRAELVPGGVRLHRLTVTNTHQIVVHETRQIRAGVIIVAAGAAGPALVEQGLGLHTRHGRAYRQFPRLDLLSGAQTPVLRASGLTLRPQNGGYTLVPAIHHRDPHGYHPAGGSLTGVPTGLRRELLEDLVGLMDAVPALAGEGLELGRSSADVPGAWLALPGGRPDAPPQAEELAPGLHLLLGGPLADTLGLAAAHELAQRVSASLEHHHHHH”, which “soluble on expression in E. coli” value is on record?
**A.** soluble

**Q.** For “MGSDKIHHHHHHLSFLYVYERSAKIGVQENCVVVESKKENLKRILPIEGVENVIIFGDASLSSNCVKQFMERDINLTWLSSRGKFYGRLESTRNVNIYRQRKQFACGEDDEFCLALAKRIILAKVKNQITILRRYRRNRPEKSVQKIIDAMAKLLPIMERVHNKDELMGHEGMAARYYYQGLAELVEPDFAFSGRNRQPPRDPFNSLLSFAYTLLMYDLYTAAVNRGLNPYASFLHSIRRGHPALCSDLMEEWRAILADSLALYVTSKGIIKRENFEKPNEEGGVYLDGIGSKAFIAEYEKKVRGRSNYLAYVDYSVSFRRAMEMQCQRLAKAIEEGDPSIYQPVVIR”, which “soluble on expression in E. coli” value is on record?
**A.** not soluble

**Q.** For “MQPKVVYGNAAVEGVNRWGWFMGHFITPEDDPRSTEMLEVKWAVHKAGDSRTEWAVNNQAATLSILIDGEFRLQFEDREILLSREGDYVLWCAGVPHWWVAESDCTILTVRWPSKPGDSVALPEESKS”, which “soluble on expression in E. coli” value is on record?
**A.** soluble

**Q.** With “MNALVAHNSEAWDKKVETGNEWTVAVEQQVIEQAKKGNWDIRVTPMKDVPKDWFPPIKGLKVLCLASGGGQQGPVLAAAGADVTVLDNSEKQLNQDRMIAERDGLTIHTVKGSMDDLSVFNDESFDVIVHPVANVFVENVLPVWKEAYRVLKRNGILISGFVNPVVFLFDTVLEQQGVLKVKHSIPYADPEDLPKHKVKELIENNEALEFGHSLEDQIKGQIDAGFIVTGFYEDKGGFVLDQYIHTYSATRSVKVLEHHHHHH” as the sequence, how does the “soluble on expression in E. coli” value read?
**A.** soluble

**Q.** Which “soluble on expression in E. coli” value does the source give for “MLYASLCRTPVFGILAQILCDIYSSIGCALSSFRSPLGPPFDFLFDTCSCQTARCFNKSKGVLITGSKLKAFRNPQPSWGFSVHKQVAALWQQLLSTGNVTRETDFFQQGGDSLLATRLTGQLHQAGYEAQLSDLFNHPRLADFAATLRKTDVPVEQPFVHSPEDRYQPFALTDVQQAYLVGRQPGFALGGVGSHFFVEFEIADLDLTRLETVWNRLIARHDMLRAVVRDGQQQVLEQTPRWVIPAHILHTPEEALQVREKLAHQVLNPEVWPVFDLQVGYVDGMPARLWLCLDNLLLDGLSMQILLAELEHGYQYPQQLPPPLPVTYRDYLQQPAIQSLNADSLAWWQAQLDDIPPAPALPLRCMPQDVETPRFARLNGALDSTRWHRLKKRAADAHLTPSAVLLSVWSTVLSAWSAQPEFTLNLTLFDRRPLHPQINQILGDFTSLMLLSWHPGESWLHSAQSLQQRLSQNLNHRDVSAIRVMRQLAQRQNVPAVPMPVVFTSALGFEQDNFLARRNLLKPVWGISQTPQVWLDHQVYESEGELRFNWDFVAALFPAGQVERQFEQYCTLLNRMTEDENSWHLPLAALVPPVKQAEQGTERTSRVCPEHSQSHIAADESTVSLICDAFREVVGESVTPAQNFFEAGATSLNLVQLHVLLQRHEFSTLTLLDLFTHPSPAALAAYLTSVATVEKTKRSRPVRRRQRRI” here?
**A.** not soluble

**Q.** Which “soluble on expression in E. coli” value does the source give for “MAMQMQLEANADTSVEEESFGPQPISRLEQCGINANDVKKLEEAGFHTVEAVAYAPKKELINIKGISEAKADKILAEAAKLVPMGFTTATEFHQRRSEIIQITTGSKELDKLLQGGIETGSITEMFGEFRTGKTQICHTLAVTCQLPIDRGGGEGKAMYIDTEGTFRPERLLAVAERYGLSGSDVLDNVAYARAFNTDHQTQLLYQASAMMVESRYALLIVDSATALYRTDYSGRGELSARQMHLARFLRMLLRLADEFGVAVVITNQVVAQVDGAAMFAADPKKPIGGNIIAHASTTRLYLRKGRGETRICKIYDSPCLPEAEAMFAINADGVGDAKD” here?
**A.** soluble

**Q.** Which “soluble on expression in E. coli” value does the source give for “MSLGEESRDPVAALRLIKHDQQANLYVLCDLHPFLGDSPTLVRLLKEIAMAEGNHRPTVVLVSHALKLPAEVQRFAARFSLSLPSEDELLGIVREEATRWSERNRGARVRTDNRTLQQVVKNLRGLSHAEARLLARNVICNDGAITQEDLPELNRTKFQLLDLEGVLSFEYDTARFAEVGGLAALKRWLGERQSAFLAGKPGDQPKGMMLVGVQGAGKSLAAKAVAGLWGLPLLRLDFACLYNKYFGETERNLREALRLAEQMAPCVLWMDEVEKGISGGDQDNGVSQRVLGTLLTWMAEREAPVFMVATANAIDRLPPELIRKGRFDELFFVDLPTPEVRAEIFRIHLQRRELEPAQFDLHLLAAASEGFSGAEIEQAVVAALYAGQARQQAVDQDLLLRELARTSPLSVLMAEKLAALRTWAKGRAVPADEGHHHHHH” here?
**A.** not soluble

**Q.** For “MVHHSTKLPKNGGSEPKLVGAYLVSGSRSRIVDLINMIRELNAPILVFTRYPTFYQDLGENIKVIWITQASEDGIPPTKLHVIQDYAIKFAKENKYAVVIIDCVEYLLLYNEFASVFKFLASLKDYLIMMNSALVLAVDEKALDEKYYTLLLNEFEPLLEHHHHHH”, which “soluble on expression in E. coli” value is on record?
**A.** soluble

**Q.** With “MTNSNDIDETAATIDTARALLKSFGFEAQRHNVRSAVTLLALAGLKPGDHWADSTTPRLGVQKIMDWSGAYWAKPYATGSREDFRKKTLRQWVDNGFAVLNPDNLNIATNSQLNEYCLSDEAAQAIRSYGTDAFESALVDFLSKASDTVRARAEALRAAMISVDLADGDEFLLSPAGQNPLLKKMVEEFMPRFAPGAKVLYIGDTRGKHTRFEKRIFEETLGLTFDPHGRMPDLVLHDKVRKWLFLMEAVKSKGPFDEERHRTLRELFATPVAGLVFVNCFENREAMRQWLPELAWETEAWVADDPDHLIHLNGSRFLGPYER” as the sequence, how does the “soluble on expression in E. coli” value read?
**A.** soluble

**Q.** Which “soluble on expression in E. coli” value does the source give for “MIEFRQVSKTFNKKKQKIDALKDVSFTVNRNDIFGVIGYSGAGKSTLVRLVNHLEAASNGQVIVDGHDITNYSDKMMRDIKKDIGMIFQHFNLLNSATVFKNVAMPLILSKKSKTEIKQRVTEMLEFVGLSDKKDQFPDELSGGQKQRVAIARALVTNPKILLCDEATSALDPATTASILTLLKNVNQTFGITIMMITHEMRVIKDICNRVAVMEKGKVVETGTVKEVFSHPKTTIAQNFVSTVIQTEPSTSLIRRLNDEQVGDFKDYKIFVEETQVTQPIINDLIQICGREVKILFSSMSEIQGNTVCYMWLRFNMDQQFEDTAINQYFKEKNIQFEEVH” here?
**A.** not soluble

**Q.** For “MGSDKIHHHHHHMIESIQELLQKEAQAVLNIPVTDAYEKAVELIVEQIHRKKGKLVTSGMGKAGQIAMNIATTFCSTGIPSVFLHPSEAQHGDLGILQENDLLLLISNSGKTREIVELTQLAHNLNPGLKFIVITGNPDSPLASESDVCLSTGHPAEVCTLGMTPTTSTTVMTVIGDILVVQTMKRTEFTIEEYSKRHHGGYLGEKSRKLCVK”, which “soluble on expression in E. coli” value is on record?
**A.** not soluble

**Q.** Which “soluble on expression in E. coli” value does the source give for “MKPRKQDEKILSDQYSYFEPIISDSCDIKFDGDKRRIGSIFISHEEICFIRKEEDYIFKISLSDVVDYNTVVTIWKNQASLTLNDNRKITFYFVTNSPLTGFISILKTYMQLSRNKETIIPDDNLLINDDDEQTKVEIFDVVGLNYEGRRKELKKLIKKMKTNDAFFFLYSDLKGNELKEELLYEDKVYEIPDYEVIPGVFLQKEPDNPYDENAIKVMISNEYSEFHVGYVPREYASRLVNYIEDTVSCNAYINGGKYKTLDYLEEKIVTKESDYGLRIHVEYKVLEHHHHHH” here?
**A.** soluble

**Q.** With “GPGSMLALSQGLPTVDPALVKAFKRAANNASTSGDVDDDSRRQEVARINKEAQKAWRAEEKSFIPAIYLRTRDPSAEDVLQHLRVTSKAFELNLRFRDIEQLDEMQVKLWSLLTADKSKQTVTISEFTEIMNKLKVWQGQRFEPTPKTSPCREISVRSAQQECPVDTTPLDEVMYVGVAKRPRPSLQLFLSCPRSHAGGVEVAHIYQRFAKQVSLVKCEAELLMWDTNNDGRLTEDELESYVRDLVSRVDALRDISNDILPFYCCAVSRRIFWALDPGMRGTIRIDALLQSPLMDEWVSLQLMREDLPRNWFSAAITSHLYDKFLLLDTRNQGTLNAANMKLYKKGLPTVRDDGLPRGVGPLSSLFIDRFFETSVMMACSELDFRKFVDFVIAVEFLPACQRPLFFWNILDIEGCGVLRPVHVNSFFRETHSKLVEAGLEMPSRETVVQEVFDLIPTAEPLRITREEFVKAPQAGLFVALLIDCLSFWAYENREQR” as the sequence, how does the “soluble on expression in E. coli” value read?
**A.** not soluble

**Q.** Which “soluble on expression in E. coli” value does the source give for “MSLEPASAPKVERLEVSAYTVPTETPESDGTIAWSETTLVMVRMAACGAEGLGYTFADVATAALIDAHLKDAVVGHNPLNIPELWSTMVRKVRNLGRPGVCSMAISAVDNALWDLKARLLHLSVADLLGRAHDSIGAYGSGGFTSYSDEELRQQLTGWIGQGLTQVKMKIGSDPASDLARVRSARGAIGPDAELFVDANGAYDRKQALAKAAAFADLGVSWFEEPVSSDDLAGLRLIRERAPAGMRIAAGEYGYDSFYFRRMLEAEAVDVLQGDATRCAGITGFLAAGNLSTSFSTPFSAHTAPSLHAHAACALTSAINVEYFFDHYRIEQMFFDGALVPSNGVLRPDSTRPGFGLECKLSDMEKYRVYGNVTTEGHHHHHH” here?
**A.** not soluble

**Q.** With “MRGLRKEALEELMKLLNMKDFPYRIEGIDISHLQGKYTVASLVVFEDGFPKKGDYRRYKIEQDHPDDYESIRTVVKRRYSKHPLPNLLFVDGGIGQVNAAIEALKEIGKDCPVVGLAKKEETVVFENREIHLPHDHPVLRLLVQIRDETHRFAVSYHRKRREKESLRSVLDNVPGIGPIRKKKLIEHFGSLENIRSASLEEIARVIGSTEIARRVLDILG” as the sequence, how does the “soluble on expression in E. coli” value read?
**A.** soluble

**Q.** Which “soluble on expression in E. coli” value does the source give for “MTALITQFWQQVETALKTANPQEKCRLVNDLYDNLLPQIQLIKLEDFPEIVPQDNIAAFPEKPLLVAPKDVPKRSFATEEGYAATLHAIAHIEFNAINLGLDAAWRFGRNAQEELGEGLAFVKDWLRVAREESTHFSLVNEHLKTLGYQYGDFEAHAGLWEMAQATAHDIWERMALVPRVLEARGLDATPVLQEKIAQRKDFAAVNILDIILRDEIGHVYIGNHWYHALSKKRGLDAMKCFTELLHKYRIVIFKGVINTDARIQAGFTQHELDWIYEVEQTLKSYIKKLEHHHHHH” here?
**A.** soluble

**Q.** With “MGSDKIHHHHHHMTLNIDQESCIKCGKCVRVCPSDIFTQERAGETIGLVRVESCIVCGHCVDVCPTGSVSHSEFPPEKTHTIDYSQMPTPEQVMLLIKSRRSNRTLTSRPVPKEMLDKIVEAAHSAPTATNSQSLSFTVVTDPRKLRQVSDYTIGVFDSLAKLLLNPVVKCVVKPFMKDVYKYVPVFNRLKEEHKAGKDPILRKATALLLIHTPKSNRFGSEDANLAYQNASLMAQSLGVSQIYMGFVLTAIRQEGKDTLAKTLGIDGKIQAIMALGIPAFKYPKYTDRKEIVKNYIE” as the sequence, how does the “soluble on expression in E. coli” value read?
**A.** not soluble

**Q.** For “MALQGISVMELSGLAPGPFCAMVLADFGARVVRVDRPGSRYDVSRLGRGKRSLVLDLKQPRGAAVLRRLCKRSDVLLEPFRRGVMEKLQLGPEILQRENPRLIYARLSGFGQSGSFCRLAGHDINYLALSGGRNSIFKFFSVENSEIESVGSTSRTEHVGWWSTFLYDLQDSRWGIHGCWSNRTPVLRAADQRTWTKV”, which “soluble on expression in E. coli” value is on record?
**A.** not soluble
